This passage reports pKa results from PMC9952396.

Data set [1] has as its target T1, Cys30 (UniProt position 49, FFSFFCPHCYQ). Briefly: UV-vis. Conditions: room temperature, 200 mM KCl plus buffer salts, 10 mM dipotassium phosphate, 10 mM monopotassium phosphate, 10 mM sodium citrate, 10 mM Tris, 1 mM EDTA, Reduced DsbA (DTT-reduced, reagent removed), with oxidised DsbA (Cu(II)-phenanthroline-oxidised) as reference.
Data set [2] concerns the target T1, Cys30. To be noted: not stated (literature values for wild-type EcDsbA); cited from earlier work.

What is called pKa is the pH at which an ionisable group is half protonated.

Several values for one entry are separate records, joined by “and”; a condition that tells them apart may be missing. Equal entries are not always repeated. Where two headings read alike, the source gives them in different places.

Regarding “EcDsbA E24A (Escherichia coli (K-12); E24A)”, the pKa in data set [1] is 3.7 ± 0.1.
For the substance “EcDsbA E24A/E37A/K58A (Escherichia coli (K-12); E24A;E37A;K58A)”, the pKa in data set [1] came out at 3.5 ± 0.1.
The same measure, in the same setting: to “EcDsbA E24A/K58A (Escherichia coli (K-12); E24A;K58A)” belongs 3.5 ± 0.1; to “EcDsbA E37A (Escherichia coli (K-12); E37A)”, 3.3 ± 0.1.
Still for that read-out and setting: the same measure for “EcDsbA K58A (Escherichia coli (K-12); K58A)”: 3.4 ± 0.1.
“Thiol:disulfide interchange protein DsbA (EcDsbA), wild type (Escherichia coli (K-12))”: the pKa in data set [2] was 3.55 ± 0.02 and ~3.4; in data set [1], 3.3 ± 0.1.
